Source: publication PMC5717138

Assays:
[1] = supF shuttle vector assay, complemented XP30RO; settings: glycan lost; control: wild type
[2] = quantitative MS of di-Gly peptides; settings: glycan lost; control: wild type
[3] = DNA fiber assay after cisplatin; settings: glycan lost; control: wild type
[4] = denaturing Flag IP, anti-HA-Ub and anti-K48-Ub blot; settings: glycan lost; control: wild type
[5] = GFP-Polη foci, U2OS, 34 and 46 h after cisplatin removal; settings: glycan lost; control: wild type
[6] = DNA fiber assay, no cisplatin; settings: glycan lost; control: wild type
[7] = chromatin fractionation, chromatin-bound Polη 24 h post-UV; settings: glycan lost; control: wild type
[8] = GFP-Polη foci, U2OS, 8 h post-UVC; settings: glycan lost; control: wild type
[9] = GFP-Polη foci, U2OS, 24 h post-UVC; settings: glycan lost; control: wild type
[10] = GFP-Polη foci, U2OS, 24 h after cisplatin; settings: glycan lost; control: wild type
[11] = RPA2 foci-positive cells, 24 h recovery after cisplatin; settings: glycan lost; control: wild type
[12] = chromatin-fraction IP, anti-ubiquitin/K48 blot; settings: glycan lost; control: wild type
[13] = RPA foci, complemented XP30RO, 4 and 24 h post-UV; settings: glycan lost; control: wild type
[14] = unreplicated CPDs in ssDNA, complemented XP30RO, 4 h post-UV; settings: glycan lost; control: wild type
[15] = in vitro ubiquitination of E. coli-purified His-Polη; settings: glycan lost; control: WT His-Polη without OGT co-expression

B1: DNA polymerase η (Polη): T457A (protein)
parent chain: MATGQDRVVALVDMDCFFVQVEQRQNPHLRNKPCAVVQYKSWKGGGIIAVSYEARAFGVTRSMWADDAKKLCPDLLLAQVRESRGKANLTKYREASVEVMEIMSRFAVIERASIDEAYVDLTSAVQERLQKLQGQPISADLLPSTYIEGLPQGPTTAEETVQKEGMRKQGLFQWLDSLQIDNLTSPDLQLTVGAVIVEEMRAAIERETGFQCSAGISHNKVLAKLACGLNKPNRQTLVSHGSVPQLFSQMPIRKIRSLGGKLGASVIEILGIEYMGELTQFTESQLQSHFGEKNGSWLYAMCRGIEHDPVKPRQLPKTIGCSKNFPGKTALATREQVQWWLLQLAQELEERLTKDRNDNDRVATQLVVSIRVQGDKRLSSLRRCCALTRYDAHKMSHDAFTVIKNCNTSGIQTEWSPPLTMLFLCATKFSASAPSSSTDITSFLSSDPSSLPKVPVTSSEAKTQGSGPAVTATKKATTSLESFFQKAAERQKVKEASLSSLTAPTQAPMSNSPSKPSLPFQTSQSTGTEPFFKQKSLLLKQKQLNNSSVSSPQQNPWSNCKALPNSLPTEYPGCVPVCEGVSKLEESSKATPAEMDLAHNSQSMHASSASKSVLEVTQKATPNPSLLAAEDQVPCEKCGSLVPVWDMPEHMDYHFALELQKSFLQPHSSNPQVVSAVSHQGKRNPKSPLACTNKRPRPEGMQTLESFFKPLTH
[1]
  other: UV-induced mutation frequency: increases
[2]
  other: site-specific ubiquitination: decreases
[3]
  other: replication fork progression, other: median fiber length: decreases, 8.62 vs 10.65
[4]
  other: polyubiquitination: decreases
[5]
  localisation_or_trafficking: increases
[6]
  other: replication fork progression, other: median fiber length: no change, 12.07 vs 12.17
[7]
  localisation_or_trafficking: increases
[8]
  localisation_or_trafficking: no change
[9]
  localisation_or_trafficking: increases
[10]
  localisation_or_trafficking: no change
[11]
  other: translesion synthesis after cisplatin, other: % cells with >10 RPA2 foci: increases, 33.4 vs 12.6
[12]
  other: polyubiquitination: decreases
[13]
  other: CPD lesion bypass: no change
[14]
  other: CPD lesion bypass: no change

B2: DNA polymerase η (Polη): T457A with GST-OGT co-expression (protein)
parent chain: MATGQDRVVALVDMDCFFVQVEQRQNPHLRNKPCAVVQYKSWKGGGIIAVSYEARAFGVTRSMWADDAKKLCPDLLLAQVRESRGKANLTKYREASVEVMEIMSRFAVIERASIDEAYVDLTSAVQERLQKLQGQPISADLLPSTYIEGLPQGPTTAEETVQKEGMRKQGLFQWLDSLQIDNLTSPDLQLTVGAVIVEEMRAAIERETGFQCSAGISHNKVLAKLACGLNKPNRQTLVSHGSVPQLFSQMPIRKIRSLGGKLGASVIEILGIEYMGELTQFTESQLQSHFGEKNGSWLYAMCRGIEHDPVKPRQLPKTIGCSKNFPGKTALATREQVQWWLLQLAQELEERLTKDRNDNDRVATQLVVSIRVQGDKRLSSLRRCCALTRYDAHKMSHDAFTVIKNCNTSGIQTEWSPPLTMLFLCATKFSASAPSSSTDITSFLSSDPSSLPKVPVTSSEAKTQGSGPAVTATKKATTSLESFFQKAAERQKVKEASLSSLTAPTQAPMSNSPSKPSLPFQTSQSTGTEPFFKQKSLLLKQKQLNNSSVSSPQQNPWSNCKALPNSLPTEYPGCVPVCEGVSKLEESSKATPAEMDLAHNSQSMHASSASKSVLEVTQKATPNPSLLAAEDQVPCEKCGSLVPVWDMPEHMDYHFALELQKSFLQPHSSNPQVVSAVSHQGKRNPKSPLACTNKRPRPEGMQTLESFFKPLTH
[15]
  other: polyubiquitination: no change
